From US5157106A, “N-terminal deletions of lymphotoxin, their preparation and use” (BASF Aktiengesellschaft, priority 1986, dated 1992)

B1: LT: lymphotoxin comparison substance, cloned and expressed in E. coli; product was a mixture of lymphotoxin derivatives (protein, UniProt P01374 35-205, looked up)
Lymphotoxin-alpha: LPGVGLTPSAAQTARQHPKMHLAHSTLKPAAHLIGDPSKQNSLLWRANTDRAFLQDGFSLSNNSLLVPTSGIYFVYSQVVFSGKAYSPKATSSPLYLAHEVQLFSSQYPFHVPLLSSQKMVYPGLQEPWLHSMYHGAAFQLTQGDQLSTHTDGIPHLVLSPSTVFFGAFAL
B2: interferon-gamma: human recombinant interferon-gamma (protein, UniProt P01579 24-161, looked up)
Interferon gamma: QDPYVKEAENLKKYFNAGHSDVADNGTLFLGILKNWKEESDRKIMQSQIVSFYFKLFKNFKDDQSIQKSVETIKEDMNVKFFNSNKKKRDDFEKLTNYSVTDLNVQRKAIHELIQVMAELSPAAKTGKRKRSQMLFRG

Legend:
Balb/c mice = assay: Determination of acute toxicity, intravenous; type: in vivo
Description: Male Balb/c mice from 4 to 6 weeks of age were used to determine the acute toxicity of the substances under investigation. The animals were randomized (5 animals in each group) and, following a one-week acclimatization period, they received various doses of the test substance (0.25-4.0 mg/kg body weight intravenously, injected into one of the lateral caudal veins). The volume administered was 10 ml/kg body weight; the injection was administered over a period of 10 seconds. The substances had been dissolved in physiological saline solution which contained 0.2% BSA (bovine serum albumin) immediately before the intravenous injection. Animals which received intravenous administration of 10 ml of physiological saline solution per kg of body weight, with 0.2% BSA, acted as controls. […] The following signs were noted: diarrhea, diminished locomotion, piloerection, cyanosis and death; in addition, the body temperature and weight of the animals were determined at regular intervals.

[1] = system: primary cell cultures and normal cell lines; details: cited from earlier work
[2] = in vivo studies; cited from earlier work
L929 = assay: In vitro cytotoxic activity towards L929 (crystal violet stain, 48 h); type: cell-based; details: L929, 48 h; corrected by comparison with the control TNF standard
Description: 11. IN VITRO CYTOTOXIC ACTIVITY OF HUMAN RECOMBINANT LYMPHOTOXIN (LT) AND DELTA 23, DELTA 24 AND DELTA 25 LT MUTANTS TOWARDS THE TNF- AND LYMPHOTOXIN-SENSITIVE CELL LINES L929 AND WEHI-164
The substance was added the next day in 25 μl of complete culture medium per well. The initial concentration was 10 ng of protein per ml in each case; 2 duplicate titrations were carried out in series. The following controls were also set up on each culture plate: a) only culture medium; b) cells with culture medium but without lymphotoxin; c) a titrated TNF standard of known biological activity. After incubation for a further 48 h under the conditions indicated above, the surviving cells were stained with a solution of crystal violet (15 g of crystal violet, 7 g of NaCl, 646 ml of ethanol, 172.8 ml of 37% formaldehyde made up to 2 1 with H2 O. This entailed the culture medium being drained off and then the cells being stained with 50 μl of the solution at room temperature for 20 min. The culture plates were then washed with water until all the dyestuff which was not cell-bound had been removed. The cell-bound dyestuff was determined by photometry, after addition of 100 μl of measurement solution (50% ethanol, 0.1% acetic acid), at 540 nm using a Titertek Multiscan MCC/340 (Flow Laboratories, Meckenheim). […]

MG-63 tumor cells = assay: Synergistic cytotoxic activity with recombinant interferon-gamma on tumor cells (72 h, crystal violet); details: for factor by which the cytotoxic effect induced by interferon-gamma alone is enhanced: 2 ng/ml interferon-gamma with 2 ng/ml lymphotoxin; for enhancement of the cytotoxicity induced by interferon-gamma (synergistic effect): mean of two independent experiments; for sensitivity / growth inhibition of MG-63 by the single substance: substance alone
Description: 2×10^3 cells in the exponential phase of growth were plated out in complete culture medium (RPMI 1640+10% FCS, both from Flow Laboratories, Meckenheim) in each well of a 96-well plate and were incubated overnight at 37° C. and 5% CO2 in an atmosphere saturated with water vapor. Then, maintaining the interferon-gamma (human recombinant) concentrations constant, the lymphotoxin or the lymphotoxin mutants were subjected to serial 5-fold dilution starting from a concentration of 10 ng/ml protein. The final volume was 150 μl in all the culture wells. Pure culture medium or cultivated cells without the addition of IFN-gamma and/or LT or LT mutants were used as controls. The culture plates were incubated for a further 72 h under the conditions indicated above and were then stained using the crystal violet stain as described under
The synergistic action of lymphotoxins with interferon-gamma was determined as follows:
a) the antiproliferative activity of interferon-gamma was determined from the optical densities of the samples by the following formula: [formula]
b) Determination of the cytotoxic activity of the combination of interferon-gamma and lymphotoxin using formula A.
c) Determination of the synergistic effect of lymphotoxins with interferon-gamma: [formula]
The figures given in the Table were determined as explained above under 12a to 12c and represent the means of two independent experiments.

Molecule	time at which signs were detectable (as early as) (Balb/c mice; after the injection, especially at higher doses) [h]	severity of observed signs compared between substances (Balb/c mice; intravenous)	signs observed after injection (Balb/c mice; intravenous, 0.25-4.0 mg/kg)	reversibility of signs (Balb/c mice; surviving animals, within the 7-day observation period)	cytotoxic activity [1]	antitumor effect [2]	Activity (one unit = amount which induces 50% lysis of the given number of cells) (L929)	factor by which the cytotoxic effect induced by interferon-gamma alone is enhanced (MG-63 tumor cells; first measurement)	factor by which the cytotoxic effect induced by interferon-gamma alone is enhanced (MG-63 tumor cells; second measurement)	enhancement of the cytotoxicity induced by interferon-gamma (synergistic effect) (MG-63 tumor cells; IFN-gamma 0.4 ng/ml, lymphotoxin 0.016 ng/ml)	enhancement of the cytotoxicity induced by interferon-gamma (synergistic effect) (MG-63 tumor cells; IFN-gamma 0.4 ng/ml, lymphotoxin 0.08 ng/ml)	enhancement of the cytotoxicity induced by interferon-gamma (synergistic effect) (MG-63 tumor cells; IFN-gamma 0.4 ng/ml, lymphotoxin 0.4 ng/ml)	enhancement of the cytotoxicity induced by interferon-gamma (synergistic effect) (MG-63 tumor cells; IFN-gamma 0.4 ng/ml, lymphotoxin 2 ng/ml)	enhancement of the cytotoxicity induced by interferon-gamma (synergistic effect) (MG-63 tumor cells; IFN-gamma 0.4 ng/ml, lymphotoxin 10 ng/ml)	enhancement of the cytotoxicity induced by interferon-gamma (synergistic effect) (MG-63 tumor cells; IFN-gamma 2.0 ng/ml, lymphotoxin 0.016 ng/ml)	enhancement of the cytotoxicity induced by interferon-gamma (synergistic effect) (MG-63 tumor cells; IFN-gamma 2.0 ng/ml, lymphotoxin 0.08 ng/ml)	enhancement of the cytotoxicity induced by interferon-gamma (synergistic effect) (MG-63 tumor cells; IFN-gamma 2.0 ng/ml, lymphotoxin 0.4 ng/ml)	enhancement of the cytotoxicity induced by interferon-gamma (synergistic effect) (MG-63 tumor cells; IFN-gamma 2.0 ng/ml, lymphotoxin 2 ng/ml)	enhancement of the cytotoxicity induced by interferon-gamma (synergistic effect) (MG-63 tumor cells; IFN-gamma 2.0 ng/ml, lymphotoxin 10 ng/ml)	sensitivity / growth inhibition of MG-63 by the single substance (MG-63 tumor cells)
B1	2	most pronounced	dose- and time-dependent reduction in body temperature and weight and in locomotion, and induced piloerection and diarrhea	completely reversible in the surviving animals	less or nonexistent	effective antitumor agent	6.1 × 10^7 U/mg protein	1.57	1.41	1.42	1.87	1.75	1.89	2.16	1.15	1.27	1.40	1.49	1.61	not sensitive to lymphotoxin alone
B2																				growth is inhibited dosedependently
